Results: the supplement of paper PMC7877785
± gives the uncertainty stated by the source.

Test: self-splicing fitness, log relative to wild type (ln ratio); higher = more splicing; Tetrahymena group I intron in knt gene, E. coli kanamycin selection, DiMSum; sequences stand for … in CUCUCU…GGAGGGAAAAGUUAUCAGGCAUGCACCUGGUAGCUAGUCUUUAAACCAAUAGAUUGCAUCGGUUUAAAAGGCAAGACCGUCAAAUUGCGGGAAAGGGGUCAACAGCCGUUCAGUACCAAGUCUCAGGGGAAACUUUGAGAUGGCCUUGCAAAGGGUAUGGUAAUAAGCUGACGGACAUGGUCCUAACCACGCAGCCAAGUCCUAAGUCAACAGAUCUUCUGUUGAUAUGGAUGCAGUUCACAGACUAAAUGUCGGUCGGGGAAGAUGUAUUCUUCUCAUAAGAUAUAGUCGGACCUCUCCUUAAUGGGAGCUAGCGGAUGAAGUGAUGCAACACUGGAGCCGCUGGGAACUAAUUUGUAUGCGAAAGUAUAUUGAUUAGUUUUGGAGUACUCGUGGUCG
How it was run: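 DiMSum derived fitness as the error-weighted combination of fold changes across replicates, kanamycin versus no kanamycin, normalised to wild type. E. coli BL21(DE3) held the library, which randomised all eight P1ex-region intron nucleotides within the knt kanamycin-resistance gene on pET-22b(+). Six replicate transformations grew overnight at 37°C or 30°C on LB agar with or without 25 μg/mL kanamycin, also containing 100 μg/mL carbenicillin, 50 μM IPTG and 0.2% rhamnose, and pooled colonies were amplicon-sequenced on an Illumina HiSeq 2500.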

Sequence | self-splicing fitness (ln) (30 °C) | self-splicing fitness (ln) (37 °C)
GCGGAGCAAUAUUACGGUCU | -3.04 ± 0.44 | -2.35 ± 0.36
CCGCAGCAAUAUUACGCGUG | -2.75 ± 0.15 | -2.38 ± 0.17
ACGCAGCAAUAUUACGGAUG | -3.06 ± 0.15 | -1.67 ± 0.14
CUAAAGCAAUAUUACGCGGC | -1.21 ± 0.13 | -1.28 ± 0.17
UUUUAGCAAUAUUACGUAAA | -1.52 ± 0.17 | -0.431 ± 0.23
GCUCAGCAAUAUUACGAUAU | -0.622 ± 0.084 | 0.0543 ± 0.09
GGUAAGCAAUAUUACGUGUC | -2.08 ± 0.23 | -0.504 ± 0.3
GUAUAGCAAUAUUACGUGAA | -3.69 ± 0.25 | -1.67 ± 0.17
UUGAAGCAAUAUUACGGGUA | -0.282 ± 0.065 | -0.527 ± 0.081
GCGCAGCAAUAUUACGAUGG | -1.42 ± 0.11 | 0.113 ± 0.16
CCGAAGCAAUAUUACGCAGG | -2.04 ± 0.12 | –
UUAUAGCAAUAUUACGAACA | -1.51 ± 0.19 | -0.83 ± 0.17
GGAGAGCAAUAUUACGUGAU | -3.33 ± 0.24 | -1.75 ± 0.31
AAUAAGCAAUAUUACGUGUU | -3.01 ± 0.097 | -2.58 ± 0.13
AAGAAGCAAUAUUACGCAAG | -2.01 ± 0.13 | -1.15 ± 0.13
CUCAAGCAAUAUUACGUCAC | -3.4 ± 0.22 | -2.7 ± 0.21
AGUGAGCAAUAUUACGAGCU | -2.44 ± 0.23 | -1.07 ± 0.5
CGUGAGCAAUAUUACGCAAG | -2.85 ± 0.15 | -0.853 ± 0.13
AUACAGCAAUAUUACGGAUU | -1.82 ± 0.079 | -1.24 ± 0.088
GAAAAGCAAUAUUACGGAAG | -3.88 ± 0.31 | -1.32 ± 0.16
UCCGAGCAAUAUUACGGCCG | -4.07 ± 0.34 | –
CGUAAGCAAUAUUACGGUAG | -2.56 ± 0.14 | -1.4 ± 0.1
UUCAAGCAAUAUUACGAAUG | -4.12 ± 0.24 | -2.87 ± 0.27
CCCCAGCAAUAUUACGACCA | -2.81 ± 0.18 | -1.43 ± 0.16
ACGGAGCAAUAUUACGCCAG | -4.18 ± 0.43 | -1.11 ± 0.39
AAGAAGCAAUAUUACGGGAG | -2.62 ± 0.12 | -1.47 ± 0.11

Sequence | self-splicing fitness (ln) (30 °C) | self-splicing fitness (ln) (37 °C)
ACCUAGCAAUAUUACGUAGU | -2.07 ± 0.09 | -0.568 ± 0.081
CCUGAGCAAUAUUACGGAAA | -3.53 ± 0.35 | -1.92 ± 0.28
CCCCAGCAAUAUUACGUAAU | -3.53 ± 0.11 | -1.67 ± 0.11
AUUGAGCAAUAUUACGUCAC | -3.9 ± 0.34 | -2.34 ± 0.39
GAGAAGCAAUAUUACGGACA | -0.633 ± 0.11 | -1.02 ± 0.14
UGACAGCAAUAUUACGCCCU | 0.0425 ± 0.16 | 0.0969 ± 0.14
GGAAAGCAAUAUUACGUAAG | -1.87 ± 0.13 | -1.18 ± 0.15
UUCCAGCAAUAUUACGCAGG | -3.53 ± 0.23 | -2.57 ± 0.36
GAUAAGCAAUAUUACGCUCG | -0.655 ± 0.15 | 0.0364 ± 0.17
AAGCAGCAAUAUUACGUAAG | -1.49 ± 0.074 | -1.02 ± 0.088
UCGAAGCAAUAUUACGGUUU | -3.83 ± 0.21 | -2.72 ± 0.29
UCGAAGCAAUAUUACGUCAA | -1.52 ± 0.11 | -1.15 ± 0.1
AUCCAGCAAUAUUACGAACC | -0.394 ± 0.1 | -0.346 ± 0.15
UCACAGCAAUAUUACGAGGG | -2.01 ± 0.088 | -1.28 ± 0.12
GGCAAGCAAUAUUACGGAUC | -0.625 ± 0.096 | -0.11 ± 0.099
CAAGAGCAAUAUUACGACCC | -2.19 ± 0.45 | –
UCGCAGCAAUAUUACGCAAU | -2.15 ± 0.19 | -2.92 ± 0.35
UACGAGCAAUAUUACGCUUG | -2.75 ± 0.32 | –
UCUAAGCAAUAUUACGAUCU | -3.07 ± 0.23 | -2.08 ± 0.2
GCACAGCAAUAUUACGCAAG | -3.59 ± 0.24 | -2.51 ± 0.19
CUAAAGCAAUAUUACGGAGC | -3.27 ± 0.31 | -1.2 ± 0.29
UAGAAGCAAUAUUACGGCAU | -1.96 ± 0.12 | -0.323 ± 0.094
CCAAAGCAAUAUUACGGAGG | -3.79 ± 0.25 | -2.04 ± 0.21
AGACAGCAAUAUUACGGUAG | -3.97 ± 0.22 | -0.604 ± 0.092
GUGAAGCAAUAUUACGUAGU | -2.19 ± 0.064 | -1.1 ± 0.08
